Publication PMC4263763, “Crystal Structure of Calcium Binding Protein-5 from Entamoeba histolytica and Its Involvement in Initiation of Phagocytosis of Human Erythrocytes” (PLoS Pathogens, 2014)
Several values for one entry are separate records, joined by “and”; a condition that tells them apart may be missing. Equal values may be shown once. Entries after “also recorded” stand apart in the source; their conditions may differ.

What was measured:
[1] = molecular target: Entamoeba histolytica calcium binding protein-5 (EhCaBP5), recombinant (Entamoeba histolytica); experiment: SPR; EhCaBP5 immobilised on sensor chip up to 500 RU; native and mutated IQ motif peptides as analyte at 25, 50, 75, 100 and 125 mM (so in the source); 25°C
[2] = molecular target: IQ motif peptide of myosin 1B (native) (Entamoeba histolytica); experiment: SPR
EhCaBP5 [3] = experiment: SPR binding of EhCaBP5 (analyte) to immobilized myosin IQ motif peptides; design: species or system Entamoeba histolytica; conditions: Biacore T200, peptide immobilized (2000 RU, CM4 chip), EhCaBP5 as analyte, pH 7.4
From the text: The E. histolytica genome codes for two myosin, myosin I (accession number EAL48894) and myosin II (accession number EAL51645). Myosin I has one IQ motif and myosin II has two IQ motifs. To check the interaction between EhCaBP5 and myosin IQ motifs, we commercially synthesized (obtained) peptides of IQ motif of myosin 1B (unconventional myosin) (IQKAWKGYRNRKR) and second IQ motif of heavy chain myosin (myosin II) ([…]), which is expected to bind to ELC. For the binding study we used Biacore T200 apparatus (Biacore, GE Healthcare) at National Institute of Plant and Genome Research New Delhi, India. A total of 2000 resonance units (RU) of peptides were immobilized on a research grade S series CM4 sensor chip in 10 mM sodium acetate, pH 5.0 according to the manufacturer's amine coupling kit. After peptide immobilization, the surface was blocked with 1 M ethanolamine at pH 8.5, followed by regeneration using 50 mM NaOH. The interaction experiments were performed using buffer containing 10 mM HEPES pH 7.4, 150 mM NaCl and 0.2 mM Calcium chloride. We also performed interaction experiment in absence of Ca^2+ and supplementing 5 mM of EGTA in the above buffer. […] The association kinetics for EhCaBP5 was monitored for 300 seconds and dissociation was monitored for the next 300 seconds.

EhCaBP5 [4] = experiment: SPR binding of native and mutated IQ motif peptides (analyte) to immobilized EhCaBP5 (model validation); design: species or system Entamoeba histolytica; conditions: peptide as analyte, 25°C
Method: To validate EhCaBP5-IQ motif complex model, we obtained commercially synthesized two mutated Myosin 1B IQ motif peptide IQ-M1 A*A*KAWKGYRNRKR (where IQ is mutated to AA) and IQ-M2 IQKAWKGYD*ND*KD* (Where R is mutated to D). The EhCaBP5 was immobilized on sensor chip up to 500 resonance units and native myosin 1B IQ motif peptide and mutated IQ motif peptide were passed as analyte at concentration of […]. The data were recorded at 25°C and data analysis was performed using Biacore […] SPR Kinetics evaluation software.

myosin 1B = experiment: Co-immunoprecipitation of myosin 1B from total cell lysate; type: binding, Entamoeba histolytica; conditions: immobilized anti-EhCaBP5 antibody, 800 µg E. histolytica lysate, 6 h at 4°C, with EGTA; western blot
Method: Immunoprecipitation was carried out as described previously. Briefly, CNBr-activated Sepharose-4B beads (Pharmacia) were conjugated with anti-EhCaBP5 antibody. Crude immunoglobulins were collected from the immunized serum using 40% ammonium sulphate and subsequently dialysed in coupling buffer (bicarbonate buffer). Usually, 10 mg immunoglobulin protein was added per gram of CNBr-activated Sepharose-4B beads. The resin was mixed gently for 18 h at 4°C. The conjugated Sepharose beads were incubated with E. histolytica lysate for 6 h at 4°C. The beads were then washed thrice with wash buffer (10 mM Tris-Cl (pH 7.5), 150 mM NaCl, 1 mM imidazole, 1 mM magnesium acetate, 2 mM β-ME and protease inhibitor cocktail). Ca^2+ and EGTA were maintained throughout the process as required. After incubation the beads were washed sequentially with 60 mM Tris-Cl (pH 6.8), 100 mM NaCl and with 60 mM Tris-Cl (pH 6.8). The pellet was suspended in 2× SDS polyacrylamide gel electrophoresis (PAGE) buffer and boiled for 5 min followed by centrifugation for 5 min. The proteins were then analysed by western blotting.

F-actin = experiment: Co-sedimentation assay with F-actin; type: binding; conditions: in vitro, pellet fraction containing F-actin
[5] = ITC; ref [17]; cited from earlier work
From the text: Overall, the molecule is divided in two globular lobes, where each lobe has four alpha helices connected by loops. The N-terminal lobe has one EF-hand motif with a calcium ion bound to the loop between two helices. The C-terminal lobe has two small anti-parallel beta strands along with four loops (Fig. 1A). Signature residues of an additional EF-hand motif are found in the C-terminal lobe (residues87 to 98). In the crystal structure these residues form a loop between two helices similar to that of a typical EF-hand but density for Ca^2+ is not observed. Consistent with the crystals structure, ...

IQ motif peptide of myosin 1B (native) showed a Kd [1] of 0.64 nM.

For “Entamoeba histolytica calcium binding protein-5 (EhCaBP5), recombinant (natural protein)”, the Kd [2] was 2.4 nM and 5.4 nM.

With LQACARAFAARKHFS [myosin II IQ motif] the “binding to EhCaBP5 (in words)” value (EhCaBP5 [3]) was “does not bind”.

For “A*A*KAWKGYRNRKR [IQ-M1, mutated Myosin 1B IQ motif peptide IQ-M1 (where IQ is mutated to AA)]”, the “change in Kd versus native peptide (in words)” value (EhCaBP5 [4]) was “could not find any significant change in Kd value”.

B1: EhCaBP5: calcium binding protein 5 from E. histolytica (accession number EAL46660) (protein)
chain: MQKHNEDLKESFLLFDGDGDGYLTLNEFESLVRVLGVVMETSAIASTYNSNSKVRGMSYELFTSCFSQLKTKSFNKDEIKTAINVLDKDKKGFIPAIELRRILSTIGDNMEQKEITDLFTFMGIDEQGVVKVDDFINQLMTVFK
For B1, the “co-precipitation of myosin 1B (in words)” value (myosin 1B) is given as “precipitated myosin 1B along with EhCaBP5 even in the presence of EGTA”, the “co-sedimentation with / binding to F-actin (in words)” value (F-actin) is given as “No significant amount of EhCaBP5 was observed in the pellet fraction containing F-actin; also recorded: does not bind F-actin” and the “number of Ca^2+ binding sites” value [5] is given as “one”.
